From patent US20210188989A1 (SYSTIMMUNE, published 2021)
Residue numbers refer to the chain shown, from its start.

T1: recombinant cynomolgus 4-1BB extracellular domain protein (cynomolgus, UniProt A9YYE7 24-186)
T1 construct: Analyte in the Octet assay
T1 sequence: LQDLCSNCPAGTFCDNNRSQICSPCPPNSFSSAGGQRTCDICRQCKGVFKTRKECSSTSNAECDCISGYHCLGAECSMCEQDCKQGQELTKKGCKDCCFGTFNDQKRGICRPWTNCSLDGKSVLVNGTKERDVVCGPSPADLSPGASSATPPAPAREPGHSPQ

B1: 416G1 (antibody, human IgG1, kappa, V domains shown)
VH: QSVEESGGRLVTPGTPLTLTCTVSGFTINSYHMIWVRQAPGEGLEYIGFINDGGFTYYASWAKGRFIISRTSTTVDLKMTSLTVADTATYFCARGVDGTSYPDLWGPGTLVTVSS
VL: DVVMTQTPASVSEPVGGAVTIKCQASQSIGSDLAWYQQKPGQPPKLLIYRASTLASGVSSRFKGSGSGTEFTLTISDLECADAATYYCQCIYYGSDDVIYHTFGGGTEVVVKR
notes: one of the 34 chimeric antibodies; rabbit variable regions on human IgG1 and human kappa; also called 416G1 chimeric rabbit/human IgG
B2: 419D9 (antibody, human IgG1, kappa, V domains shown)
VH: QSLEESGGDLVKPGASLTLTCTASGFSFSSRHYMCWVRQAPGEGLEWIACIYTGSSGTPHYASWAKGRFTISQTSSTTVTLQMTSLTAADTATYFCSSEGNLWGPGTLVTVSS
VL: AQVLTQTASPVSAAVGGTVTINCQSSQSVYSNWLSWYQQKPGQPPKRLIYSASTLASGVPSRFKGSGSGTQFTLTISDLECDDAATYYCAGGYNTVTDTFAFGRGTEVEVKR
notes: one of the 34 chimeric antibodies; rabbit variable regions on human IgG1 and human kappa; also called 419D9 chimeric rabbit/human IgG
B3: 420H6 (antibody, human IgG1, kappa, V domains shown)
VH: QQQLEESGGGLVKPGGTLTLTCKASGIDFSSSYYMCWVRQAPGEGLEWIACIYTGGSGTPHYASWAKGRFTISQTSSTTVTLQMTSLTAADTATYFCAREGSLWGQGTLVTVSS
VL: B2 VL with S25A, T97I, R104G, V110F
notes: one of the 34 chimeric antibodies; rabbit variable regions on human IgG1 and human kappa; also called 420H6 chimeric rabbit/human IgG
B4: 459F1 (antibody, human IgG1, kappa, V domains shown)
VH: ESLEESGGDLVKPGASLTLTCTASGIDFSRRYYMCWVRQAPGKGLEWIACMYTGSRDTPHYASWAKGRFTISQTSSTTVTLQMTSLTAADTATYFCAREGNLWGPGTLVTVSS
VL: B2 VL with L34F, R47L, R104G, V110F
notes: one of the 34 chimeric antibodies; rabbit variable regions on human IgG1 and human kappa; also called 459F1 chimeric rabbit/human IgG
B5: 460C3 (antibody, human IgG1, kappa, V domains shown)
VH: B4 VH with E1Q, M51I, N101S, P105Q
VL: B2 VL with A8P, P10S, T20S, N22S, L34F, R47L, T97I, R104G, V110F
notes: one of the 34 chimeric antibodies; rabbit variable regions on human IgG1 and human kappa; also called 460C3 chimeric rabbit/human IgG
B6: 418E10 (antibody, human IgG1, kappa, V domains shown)
VH: QSLEESGGRLVTPGTPLTLTCTASDFSLSTYYMSWVRQAPGKGLEWIGSIYDSGAAYYATWAKGRFTISRTSTTVDLRMTSLTAADTATYFCARDPINNAIWGQGTLVTVSS
VL: ALVMTQTPSPVSAAVGGTVTINCQASQSIGSNLNWYQQKPGQPPKLLIYYVSTLASGVPSRFKGSGSGTEYTLTISGVQCDDAATYYCLGVWNYWGDDGTAFGGGTEVEVKR
notes: one of the 34 chimeric antibodies; rabbit variable regions on human IgG1 and human kappa; also called 418E10 chimeric rabbit/human IgG
B7: 418E4 (antibody, human IgG1, kappa, V domains shown)
VH: B6 VH with D25E, T30S, D52A, A55S, T60S, R78K, A93V, A100D, Q104P
VL: B6 VL with G30A, S31T, V51T, T53S, K63S, Y71F, V110F
notes: one of the 34 chimeric antibodies; rabbit variable regions on human IgG1 and human kappa; also called 418E4 chimeric rabbit/human IgG
B8: 466F6 VHv2VLv5 (antibody, human IgG1, kappa, V domains shown)
VH: RSLVESGGGLVQPGGSLRLSCTASGFTISSYHMQWVRQAPGKGLEYIGTISSGGNVYYASSARGRFTISRPSSKNTVDLQMNSLRAEDTAVYYCARDSGYSDPMWGQGTLVTVSS
VL: DVVMTQSPSSVSASVGDRVTITCQASQNIRTYLSWYQQKPGKAPKLLIYAAANLASGVPSRFSGSGSGTDFTLTISDLEPGDAATYYCQSTYLGTDYVGGAFGGGTKVEIKR
notes: one of the humanized antibodies; also called 466F6 humanized
B9: 472E4 VHv1VLv1 (antibody, human IgG1, kappa, V domains shown)
VH: EVQLVESGGGLVQPGGSLRLSCAASGFSLNNNAISWVRQAPGKGLEWVAIIQNTGTTDYARSAKGRFTISRDNSKNTLYLQMNSLRAEDTAVYYCARGYGFESELVIWGQGTLVTVSS
VL: DIQMTQSPSSLSASVGDRVTITCQSSQSVYNNNALAWYQQKPGKVPKLLIYLASTLASGVPSRFSGSGSGTDFTLTISSLQPEDVATYYCLGVYNDDVDNGFGGGTKVEIKR
notes: one of the humanized antibodies; also called 472E4 humanized
B10: 419D9 VHv3VLv3 (antibody, human IgG1, kappa, V domains shown)
VH: EVQLLESGGGLVQPGGSLRLSCTASGFSFSSRHYMCWVRQAPGKGLEWIACIYTGSSGTPHYASSAKGRFTISQDNSKNTVTLQMNSLRAEDTAVYYCAREGNLWGQGTLVTVSS
VL: DIQMTQSPSTLSASVGDRVTITCQSSQSVYSNWLSWYQQKPGKAPKRLIYSASTLASGVPSRFSGSGSGTEFTLTISSLQPDDFATYYCAGGYNTVTDTFAFGGGTKVEIKR
notes: one of the humanized antibodies; also called 419D9 humanized
B11: 460C3 VHv1VLv1 (antibody, human IgG1, kappa, V domains shown)
VH: EVQLLESGGGLVQPGGSLRLSCAASGIDFSRRYYMCWVRQAPGKGLEWIACIYTGSRDTPHYASSAKGRFTISRDNSKNTLYLQMNSLRAEDTAVYYCAREGSLWGQGTLVTVSS
VL: B10 VL with L34F, R47L, T97I
notes: one of the humanized antibodies; also called 460C3 humanized
B12: 420H6 VHv1VLv1 (antibody, human IgG1, kappa, V domains shown)
VH: B11 VH with R31S, R32S, S56G, R57S, D58G
VL: B10 VL with S25A, R47L, T97I
notes: one of the humanized antibodies; also called 420H6 humanized
B13: 459F1 VHv1VLv1 (antibody, human IgG1, kappa, V domains shown)
VH: B11 VH with I52M, S103N
VL: B10 VL with L34F, R47L
notes: one of the humanized antibodies; also called 459F1 humanized
B14: 418E10 VHv1VLv1 (antibody, human IgG1, kappa, V domains shown)
VH: EVQLVESGGGLVQPGGSLRLSCAASGFSLSTYYMSWVRQAPGKGLEWIGSIYDSGAAYYATSAKGRFTISRDNSKNTLYLQMNSLRAEDTAVYYCARDPINNAIWGQGTLVTVSS
VL: DIQMTQSPSTLSASVGDRVTITCQASQSIGSNLNWYQQKPGKAPKLLIYYVSTLASGVPSRFSGSGSGTEFTLTISSLQPDDFATYYCLGVWNYWGDDGTAFGGGTKVEIKR
notes: one of the humanized antibodies; also called 418E10 humanized
B15: 418E4 VHv1VLv1 (antibody, human IgG1, kappa, V domains shown)
VH: B14 VH with T31S, D53A, A56S, T61S, A103D
VL: B14 VL with G30A, S31T, V51T, T53S
notes: one of the humanized antibodies; also called 418E4 humanized
B16: 413F3 VHv1VLv1 (antibody, human IgG1, kappa, V domains shown)
VH: EVQLVESGGGLVQPGGSLRLSCAASGIDFSSNYMCWVRQAPGKGLEWIACIYGDSSDNSYSASSAKGRFTISRDNSKNTLYLQMNSLRAEDTAVYYCARSGYSYLGYFNLWGQGTLVTVSS
VL: DIQMTQSPSSLSASVGDRVTITCQASQSIYSNLAWYQQKPGKVPKLLIYSTSTLASGVPSRFSGSGSGTDFTLTISSLQPEDVATYYCQNYYGSSTDSYGNPFGGGTKVEIKR
notes: one of the humanized antibodies; also called 413F3 humanized
B17: 416F8 VHv3VLv1 (antibody, human IgG1, kappa, V domains shown)
VH: QSLVESGGGLVQPGGSLRLSCAASGFSLSNYYMNWVRQAPGKGLEYIGIISSSGSAYYASSAKGRFTISRDNSKNTLYLQMNSLRAEDTAVYYCARGDYGMDLWGQGTLVTVSS
VL: DIQMTQSPSSLSASVGDRVTITCQSSQTVYNNNLLSWYQQKPGKVPKLLIYYASTLAFGVPSRFSGSGSGTDFTLTISSLQPEDVATYYCQGGYSGWIYVFGGGTKVEIKR
notes: one of the humanized antibodies; also called 416F8 humanized
B18: 411H11 VHv1VLv1 (antibody, human IgG1, kappa, V domains shown)
VH: EVQLVESGGGLVQPGGSLRLSCAASGFTISSHHMIWVRQAPGKGLQYIGFINDGDYTYYTNSAKGRFTISRDNSKNTLYLQMNSLRAEDTAVYYCARGVDGTSYPGLWGQGTLVTVSS
VL: DVVMTQSPSSVSASVGDRVTITCQASQSIGADLAWYQQKPGKAPKLLIYRASTLASGVPSRFSGSGSGTDFTLTISSLQPEDFATYYCQAIYYGTDDVIYHTFGGGTKVEIKR
notes: one of the humanized antibodies; also called 411H11 humanized
B19: 416G1 VHv1VLv1 (antibody, human IgG1, kappa, V domains shown)
VH: B18 VH with S30N, H32Y, Q46E, D55G, Y56F, T60A, N61S, G106D
VL: B18 VL with A31S, A90S, T95S
notes: one of the humanized antibodies; also called 416G1 humanized
B20: 420H5 VHv3VLv3 (antibody, human IgG1, kappa, V domains shown)
VH: QSLVESGGGLVQPGGSLRLSCAASGFSFSSNYWICWVRQAPGKGLEWIACIYVGSSGDTYYASSAKGRFTISRDNSKNTLYLQMNSLRAEDTAVYYCARDSSSYYMFNLWGQGTLVTVSS
VL: ALVMTQSPSTLSASVGDRVTINCQASEDIDTYLAWYQQKPGKAPKLLIFYASDLASGVPSRFSGSGSGTEFTLTISSLQPDDFATYYCQGGYYTSSADTRGAFGGGTKVEIKR
notes: one of the humanized antibodies; also called 420H5 humanized
B21: 470C6 VHv3VLv3 (antibody, human IgG1, kappa, V domains shown)
VH: B20 VH with S29T, N31S, W33Y, I34M, V53T, D58S, S63N
VL: B20 VL with T31N, A97T
notes: one of the humanized antibodies; also called 470C6 humanized
B22: 464C11 VHv1VLv1 (antibody, human IgG1, kappa, V domains shown)
VH: EVQLVESGGGLVQPGPSLRLSCTASGFSLSHYWMTWVRQAPGKGLEYIGFINVGGDTSYASSVKGRFTISRDDSKSIAYLQMNSLKTEDTAVYYCGRGGLTFGWDLWGQGTLVTVSS
VL: DIQMTQSPSTLSASVGDRVTITCQSSQSVYSNSFLSWYQQKPGKAPKLLIYSASDLASGVPSRFSGSGSGTEFTLTISSLQPDDFATYYCAGVYSDNTYVFGGGTKVEIKR
notes: one of the humanized antibodies; also called 464C11 humanized
B23: 418H5 VHv2VLv1 (antibody, human IgG1, kappa, V domains shown)
VH: EVQLVESGGGLVQPGGSLRLSCTASGIDLSAYHMSWVRQAPGKGLEYIGMIGSSGTIHYANSAKGRFTISKDNTKNTVDLQMNSLRAEDTAVYYCARDSYNSDYAFNLWGQGTLVTVSS
VL: DIQMTQSPSSVSASVGDRVTITCQSSPSVYKNNQLAWYQQKPGKAPKLLIYLASTLASGVPSRFSGSGSGTDFTLTISSLQPEDFATYYCAGGYSSSSDTAFGGGTKVEIKR
notes: one of the humanized antibodies; also called 418H5 humanized

molecular target: T2, recombinant human 4-1BB extracellular domain protein (human, UniProt Q07011 24-186); experiment: Octet BLI; chimeric IgG from transfection supernatant on anti-human Fc biosensor; recombinant human 41BB; column kdis(1/s) Human
T2 construct: extracellular domain; Analyte in the Octet assay; also called CD137; TNFRSF9
Source text: (§1) The heavy and light chain expression plasmids generated from each well were transiently co-transfected to produce rabbit/human chimeric antibodies. Recombinant antibody supernatants were confirmed to contain antibodies specific for human and cynomolgus 4-1BB using bio-layer interferometry analysis on a ForteBio Octet Red 96 instrument. Anti-human Fc biosensors (Pall ForteBio) were used to capture antibodies in the supernatants. Association to human or cynomolgus 4-1BB was observed by real-time interferometry by placing the biosensors in wells containing recombinant human or cynomolgus 4-1BB extracellular domain protein. Dissociation was measured after transfer of the biosensors into wells containing 10× kinetics buffer (Pall ForteBio). The software provided by the manufacturer was used to analyze the interferometry data. A summary of the primary BCC screening data and the corresponding screening data for 34 recombinant chimeric rabbit/human IgG antibodies is shown in FIG. 2.

Row | Binder | koff [s⁻¹]
1 | B1 | 0.0014
2 | B2 | 0.00063
3 | B3 | 0.00094
4 | B4 | 0.00075
5 | B5 | 0.00067
6 | B6 | 0.0011
7 | B7 | 0.0036

molecular target: T1, recombinant cynomolgus 4-1BB …; experiment: Octet BLI; chimeric IgG from transfection supernatant on anti-human Fc biosensor; recombinant cynomolgus 41BB; column kdis(1/s) Cynomolgus
Source text: as §1

Row | Binder | koff [s⁻¹]
8 | B1 | 0.0019
9 | B2 | 0.0014
10 | B3 | 0.002
11 | B4 | 0.0075
12 | B5 | 0.0041
13 | B6 | 0.0015
14 | B7 | 0.005

molecular target: T2, recombinant human 4-1BB extracellular …; experiment: Octet, binding off-rate kdis; the sheet names no species of 41BB, paragraph 86: 'binding to human and recombinant 4-1BB by octet assay'

Row | Binder | koff [s⁻¹]
15 | B8 | 0.00254
16 | B9 | 0.00265
17 | B10 | 0.00284
18 | B11 | 0.000728
19 | B12 | 0.00128
20 | B13 | 0.00131
21 | B14 | 0.000958
22 | B15 | 0.00277
23 | B16 | 0.00224
24 | B17 | 0.00645
25 | B18 | 0.00179
26 | B19 | 0.00166
27 | B20 | 0.00178
28 | B21 | 0.00183
29 | B22 | 0.000784
30 | B23 | 0.00245
